Holding throughout (conditions): both partners purified
Test [1] has as its target T1, PR70 core fragment (residues 130–483) (human, UniProt Q9Y5P8 130-483).
T1 construct: PR70 (B''β), regulatory B'' subunit of PP2A, human, product of PPP2R3B; The crystal (PDB 4MEW) was of the selenomethionine-labelled protein alone; the model holds residues 134–481; also called PR70 core domain; source: E. coli BL21(DE3), purified (IMAC, TEV cleavage, gel filtration); not shown: His tag, N-terminal, cleaved
T1 sequence (looked up): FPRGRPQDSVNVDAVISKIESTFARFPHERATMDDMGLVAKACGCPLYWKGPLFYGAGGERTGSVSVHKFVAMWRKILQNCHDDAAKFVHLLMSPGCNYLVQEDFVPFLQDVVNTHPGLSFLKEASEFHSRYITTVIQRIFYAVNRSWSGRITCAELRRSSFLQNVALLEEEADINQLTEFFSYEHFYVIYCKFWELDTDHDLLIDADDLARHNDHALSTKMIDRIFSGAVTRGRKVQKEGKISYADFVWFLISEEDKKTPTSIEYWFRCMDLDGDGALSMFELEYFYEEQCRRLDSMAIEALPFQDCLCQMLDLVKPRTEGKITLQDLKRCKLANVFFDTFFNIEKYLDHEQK
Briefly: ITC; B''-constructs at 20–40 µM in the cell titrated with 200–300 µM Aα or Aβ constructs; 15°C; 20 mM Tris pH 7.5, 200 mM NaCl, 2 mM CaCl2; 1:1 binding model.

For the next test, the target named is T2, PR70 (130–504) (human, UniProt Q9Y5P8 130-504).
T2 construct: PR70 (B''β), regulatory B'' subunit of PP2A, human, product of PPP2R3B; residues 130–504; source: E. coli BL21(DE3), purified (IMAC, TEV cleavage, gel filtration); not shown: His tag, N-terminal, cleaved
T2 sequence (looked up): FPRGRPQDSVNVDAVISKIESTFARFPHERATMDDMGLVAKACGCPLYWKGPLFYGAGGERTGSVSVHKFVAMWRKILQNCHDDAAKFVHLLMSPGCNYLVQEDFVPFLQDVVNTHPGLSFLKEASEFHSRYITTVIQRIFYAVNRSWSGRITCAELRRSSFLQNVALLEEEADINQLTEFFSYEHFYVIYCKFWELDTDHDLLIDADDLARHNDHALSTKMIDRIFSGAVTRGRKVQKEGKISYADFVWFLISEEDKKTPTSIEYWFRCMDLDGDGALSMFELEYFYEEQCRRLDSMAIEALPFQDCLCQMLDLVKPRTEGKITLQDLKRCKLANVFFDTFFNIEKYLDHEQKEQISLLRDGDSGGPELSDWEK
Described as above.

In another test the target is T3, PR70 (105–575) (human, UniProt Q9Y5P8 105-575).
T3 construct: PR70 (B''β), regulatory B'' subunit of PP2A, human, product of PPP2R3B; source: E. coli BL21(DE3), purified (IMAC, TEV cleavage, gel filtration); not shown: His tag, N-terminal, cleaved
T3 sequence (looked up): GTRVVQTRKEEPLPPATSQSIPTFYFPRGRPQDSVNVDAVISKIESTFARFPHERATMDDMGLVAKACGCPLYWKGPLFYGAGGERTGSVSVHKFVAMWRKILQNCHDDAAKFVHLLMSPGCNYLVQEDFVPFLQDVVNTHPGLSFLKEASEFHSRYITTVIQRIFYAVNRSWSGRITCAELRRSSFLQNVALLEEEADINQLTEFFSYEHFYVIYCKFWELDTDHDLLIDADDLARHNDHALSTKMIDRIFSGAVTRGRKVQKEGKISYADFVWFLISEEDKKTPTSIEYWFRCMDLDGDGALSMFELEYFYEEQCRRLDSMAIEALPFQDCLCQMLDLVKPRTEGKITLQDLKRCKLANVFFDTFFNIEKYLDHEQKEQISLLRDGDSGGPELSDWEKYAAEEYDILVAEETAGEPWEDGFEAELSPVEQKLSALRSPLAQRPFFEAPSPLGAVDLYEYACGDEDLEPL
The description is as above.

A further test has as its target T4, PR70 (25–575) (human, UniProt Q9Y5P8 25-575).
T4 construct: PR70 (B''β), regulatory B'' subunit of PP2A, human, product of PPP2R3B; also called B''/PR70; source: E. coli BL21(DE3), purified (IMAC, TEV cleavage, gel filtration); not shown: His tag, N-terminal, cleaved
T4 sequence (looked up): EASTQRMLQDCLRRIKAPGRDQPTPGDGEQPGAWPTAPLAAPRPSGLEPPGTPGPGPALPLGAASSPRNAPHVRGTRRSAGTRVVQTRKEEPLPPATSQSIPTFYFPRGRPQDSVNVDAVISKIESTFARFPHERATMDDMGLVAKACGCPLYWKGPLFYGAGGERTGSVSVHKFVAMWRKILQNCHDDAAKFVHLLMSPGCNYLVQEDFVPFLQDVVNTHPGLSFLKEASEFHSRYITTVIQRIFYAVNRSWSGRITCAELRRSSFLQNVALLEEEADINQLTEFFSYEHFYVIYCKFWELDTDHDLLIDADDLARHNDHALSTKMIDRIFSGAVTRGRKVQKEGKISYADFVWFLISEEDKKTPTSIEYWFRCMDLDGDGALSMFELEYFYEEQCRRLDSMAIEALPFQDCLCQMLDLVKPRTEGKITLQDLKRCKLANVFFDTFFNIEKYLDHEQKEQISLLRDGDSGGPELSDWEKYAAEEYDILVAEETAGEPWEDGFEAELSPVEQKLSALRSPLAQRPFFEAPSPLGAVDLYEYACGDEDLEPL
Described as above.

A further test has as its target T5, A α (HEAT1–15) (UniProt P30153 1-589).
T5 construct: PP2A scaffolding subunit A, α isoform, product of PPP2R1A; HEAT repeats 1–15; calculated molecular weight 65.3 kD; also called full length A-subunit; scaffolding A subunit; source: E. coli BL21(DE3), purified (IMAC, TEV cleavage, gel filtration); not shown: His tag, N-terminal, cleaved
Briefly: SAXS; complex purified on Superdex 200 in 20 mM Tris pH 7.5, 20 mM NaCl, 2 mM CaCl2, 0.5 mM TCEP, 1% glycerol at 15°C just prior to SAXS; 1.5 mg/ml.

Where only a bound is given, the exact number is not on record here.

B1: A α (HEAT1–8) (domain or fragment, UniProt P30153 1-321, looked up)
chain: MAAADGDDSLYPIAVLIDELRNEDVQLRLNSIKKLSTIALALGVERTRSELLPFLTDTIYDEDEVLLALAEQLGTFTTLVGGPEYVHCLLPPLESLATVEETVVRDKAVESLRAISHEHSPSDLEAHFVPLVKRLAGGDWFTSRTSACGLFSVCYPRVSSAVKAELRQYFRNLCSDDTPMVRRAAASKLGEFAKVLELDNVKSEIIPMFSNLASDEQDSVRLLAVEACVNIAQLLPQEDLEALVMPTLRQAAEDKSWRVRYMVADKFTELQKAVGPEITKTDLVPAFQNLMKDCEAEVRAAASHKVKEFCENLSADCRENV
notes: PP2A scaffolding subunit A, α isoform, product of PPP2R1A; HEAT repeats 1–8 (C-terminal repeats deleted); also called construct spanning HEAT repeats 1–8; source: E. coli BL21(DE3), purified (IMAC, TEV cleavage, gel filtration); not shown: His tag, N-terminal, cleaved
Turning to B1, the Kd is greater than 100000 nM in test [1], greater than 100000 nM with PR70 (130–504), 158 ± 22 nM with PR70 (105–575) and 223 ± 21 nM in the test with PR70 (25–575). Besides, the figures for the dH with PR70 (105–575) and with PR70 (25–575) were -20.3 ± 0.2 kcal/mol and -19.1 ± 0.4 kcal/mol, respectively. The “stoichiometry N” value in the test with PR70 (105–575) worked out at 0.99 ± 0.01; with PR70 (25–575), 0.93 ± 0.02.

B2: PR70 (130–575) (domain or fragment, human, UniProt Q9Y5P8 130-575, looked up)
chain: FPRGRPQDSVNVDAVISKIESTFARFPHERATMDDMGLVAKACGCPLYWKGPLFYGAGGERTGSVSVHKFVAMWRKILQNCHDDAAKFVHLLMSPGCNYLVQEDFVPFLQDVVNTHPGLSFLKEASEFHSRYITTVIQRIFYAVNRSWSGRITCAELRRSSFLQNVALLEEEADINQLTEFFSYEHFYVIYCKFWELDTDHDLLIDADDLARHNDHALSTKMIDRIFSGAVTRGRKVQKEGKISYADFVWFLISEEDKKTPTSIEYWFRCMDLDGDGALSMFELEYFYEEQCRRLDSMAIEALPFQDCLCQMLDLVKPRTEGKITLQDLKRCKLANVFFDTFFNIEKYLDHEQKEQISLLRDGDSGGPELSDWEKYAAEEYDILVAEETAGEPWEDGFEAELSPVEQKLSALRSPLAQRPFFEAPSPLGAVDLYEYACGDEDLEPL
notes: PR70 (B''β), regulatory B'' subunit of PP2A, human, product of PPP2R3B; Used only for SAXS of the complex with the A-subunit; source: E. coli BL21(DE3), purified (IMAC, TEV cleavage, gel filtration); not shown: His tag, N-terminal, cleaved
For the molecule B2, the binding result in the test with A α (HEAT1–15) was “binds”.

(Values after paper PMC4090178, “Structural and Biochemical Characterization of Human PR70 in Isolation and in Complex with the Scaffolding Subunit of Protein Phosphatase 2A” (PLoS ONE, 2014).)
